According to US20070275900A1:

Target: purified CD26 (dipeptidyl-peptidase IV, EC 3.4.14.5) (human) (UniProt P27487)
Test: cell-based or functional assay

purified CD26 (dipeptidyl-peptidase IV, EC 3.4.14.5) (human), sequence (P27487 whole entry, form in doubt): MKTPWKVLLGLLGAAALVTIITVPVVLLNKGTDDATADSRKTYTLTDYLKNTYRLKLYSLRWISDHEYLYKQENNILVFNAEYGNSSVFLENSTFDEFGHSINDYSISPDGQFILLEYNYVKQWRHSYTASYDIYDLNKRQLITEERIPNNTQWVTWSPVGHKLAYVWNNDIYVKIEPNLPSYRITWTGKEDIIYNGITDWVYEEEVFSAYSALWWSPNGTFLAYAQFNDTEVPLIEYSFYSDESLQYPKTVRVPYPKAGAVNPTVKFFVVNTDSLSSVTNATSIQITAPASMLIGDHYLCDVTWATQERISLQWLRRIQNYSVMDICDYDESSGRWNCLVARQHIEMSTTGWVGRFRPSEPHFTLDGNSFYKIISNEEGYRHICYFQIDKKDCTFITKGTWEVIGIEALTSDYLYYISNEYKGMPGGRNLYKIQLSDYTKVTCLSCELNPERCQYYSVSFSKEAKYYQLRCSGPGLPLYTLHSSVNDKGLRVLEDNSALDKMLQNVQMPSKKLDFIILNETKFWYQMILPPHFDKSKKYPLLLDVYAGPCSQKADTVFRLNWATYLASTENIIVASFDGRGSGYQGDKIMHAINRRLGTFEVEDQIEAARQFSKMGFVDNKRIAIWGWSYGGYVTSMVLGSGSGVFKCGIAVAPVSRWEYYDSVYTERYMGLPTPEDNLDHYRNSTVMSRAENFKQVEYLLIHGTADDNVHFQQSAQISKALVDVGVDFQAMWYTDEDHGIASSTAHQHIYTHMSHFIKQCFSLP

inhibition of conversion of 50 µM CAM-405 to CAM-212 by purified CD26, 100 µM diprotin A: > 50%
Substance: Diprotin A (peptide)
